Results from patent US20260056186A1 (JIANGSU HENGRUI PHARMACEUTICALS, published 2026).
Like-named read-outs stand apart in the source and are kept apart here.

Key:
[1] = target: T1, APRIL (Acro Biosystems, Cat: APL-H52D1) (UniProt O75888 115-250, limits assumed); assay: ELISA, APRIL coated at 1 ug/mL, anti-human Fc-HRP, OD450
T1 construct: also called ARPIL
T1 sequence (looked up): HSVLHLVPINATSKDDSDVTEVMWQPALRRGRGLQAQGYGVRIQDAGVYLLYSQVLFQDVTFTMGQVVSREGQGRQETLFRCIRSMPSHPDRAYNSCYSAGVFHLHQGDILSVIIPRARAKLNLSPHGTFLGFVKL
Experimental: (§1) The capabilities of TACI-BCMA fusion proteins (B575701, B575702, B575703, and B575704) to bind to BAFF and APRIL were assessed by ELISA as follows: BAFF (PeproTech, Cat: 310-13) or ARPIL (Acro Biosystems, Cat: APL-H52D1) was diluted to 1 μg/mL with PBS, and a 96-well plate (Costar, Cat: 3590) was coated with the dilution overnight at 4° C. The plate was washed with PBST and blocked with Blocking Buffer (PBST containing 1% BSA) at 37° C. for 1 h. The plate was tapped. The test antibodies were diluted with Blocking Buffer. Incubation was performed at 37° C. for 1.5 h. The plate was washed with PBST. An HRP-mouse anti-human Fc antibody (GenScript, Cat: A01854-200) was diluted with Blocking Buffer. Incubation was performed at 37° C. for 40 min. The plate was washed with PBST. 100 μL of TMB substrate solution (Biopanda, Cat: TMB-S-003) was added, and color development was performed at 37° C. for 3 min. 100 μL of ELISA stop solution (Solarbio, Cat: C1058) was added. OD450 was measured.
The capabilities of the 4 fusion proteins to bind to APRIL were all stronger than that of telitacicept, and their EC₅₀ values decreased to ¼ to ⅓ of that of telitacicept.

[2] = target: T2, recombinant human BAFF (R&D cat: 7537-BF-025/CF) (human, UniProt Q9Y275 134-285); assay: cell-based or functional assay
[3] = target: T2, recombinant human BAFF (R&D cat: …); assay: cell-based or functional assay; remark: listed apart in the source
[4] = target: T3, recombinant human APRIL (R&D cat: 5860-AP-010/CF) (human, UniProt O75888 105-250, limits assumed); assay: cell-based or functional assay
T3 sequence (looked up): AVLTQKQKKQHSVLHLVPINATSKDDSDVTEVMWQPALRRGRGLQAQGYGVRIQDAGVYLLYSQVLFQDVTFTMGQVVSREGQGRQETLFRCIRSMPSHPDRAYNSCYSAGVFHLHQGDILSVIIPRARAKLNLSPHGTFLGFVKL

[5] = target: T4, BAFF (PeproTech, Cat: 310-13) (UniProt Q9Y275 134-285); assay: ELISA, BAFF coated at 1 ug/mL, anti-human Fc-HRP, OD450
Experimental: as §1
The capability of B575702 to bind to BAFF was consistent with that of B575704, and their EC₅₀ values decreased to ¼ of that of telitacicept. The capability of B575701 to bind to BAFF was consistent with that of B575703, and their EC₅₀ values decreased to ½ of that of telitacicept.

[6] = target: T4, BAFF (PeproTech, Cat: 310-13); assay: ELISA, plate coated with BAFF 1 ug/mL, HRP anti-human Fc, OD450
Experimental: as §1, with “BAFF” for “The capabilities of TACI-BCMA fusion proteins (B575701, B575702, B575703, and B575704) to bind to BAFF and APRIL were assessed by ELISA as follows: BAFF”, “310-13)” for “310-13) or ARPIL (Acro Biosystems, Cat: APL-H52D1)”, “plate” for “plate (Costar, Cat: 3590)”

[7] = target: T4, BAFF (PeproTech, Cat: 310-13); assay: ELISA, BAFF coated at 1 ug/mL, anti-human Fc-HRP, OD450; remark: listed apart in the source
Experimental: as §1, with “B613301, B613302, and B613303, which are” for “TACI-BCMA”, “of anifrolumab” for “(B575701, B575702, B575703,”, “TACI-BCMA,” for “B575704)”, “follows: [0548]” for “follows:”

[8] = target: T4, BAFF (PeproTech, Cat: 310-13); assay: ELISA, plate coated with BAFF 1 ug/mL, HRP anti-human Fc, OD450; remark: listed apart in the source
Experimental: as §1, with “BAFF” for “The capabilities of TACI-BCMA fusion proteins (B575701, B575702, B575703, and B575704) to bind to BAFF and APRIL were assessed by ELISA as follows: BAFF”, “310-13)” for “310-13) or ARPIL (Acro Biosystems, Cat: APL-H52D1)”, “plate” for “plate (Costar, Cat: 3590)”

EC50 [1]: 0.711 nM
Emax [1]: 2.62
Flow cytometry proliferating B cell proportion (%), mean value, BAFF-induced, drug at 10 nM (IgG1: 40.15) [2]: 36%
Flow cytometry proliferating B cell proportion (%), mean value, BAFF-induced, drug at 100 nM (IgG1: 40.60) [2]: 30.7%
Flow cytometry proliferating B cell proportion (%), mean value, BAFF-induced, drug at 1000 nM (IgG1: 33.97) [2]: 24.3%
CD27+ CD38+ plasma cell count, mean value, BAFF + APRIL-induced (both ligands together), drug at 100 nM (IgG1: 2496) [3]: 510 cells
CD27+ CD38+ plasma cell count, mean value, BAFF + APRIL-induced (both ligands together), drug at 1000 nM (IgG1: 2279) [3]: 230 cells
CD27+ CD38+ plasma cell count, mean value, BAFF + APRIL-induced (both ligands together), drug at 10 nM (IgG1: 2687) [4]: 2450 cells
CD27+ CD38+ plasma cell count, mean value, BAFF + APRIL-induced (both ligands together), drug at 100 nM (IgG1: 2496) [4]: 510 cells
CD27+ CD38+ plasma cell count, mean value, BAFF + APRIL-induced (both ligands together), drug at 1000 nM (IgG1: 2279) [4]: 230 cells
EC50 [5]: 0.713 nM
Emax [5]: 2.28 nM (as printed)
EC50 (read off the curve) [6]: ~0.4 nM
EC50 [7]: 0.801 nM
EC50 (read off the curve) [8]: ~0.2 nM
B1: Telitacicept (RCT-18) (Fc fusion)
chain: SRVDQEERFPQGLWTGVAMRSCPEEQYWDPLLGTCMSCKTICNHQSQRTCAAFCRSLSCRKEQGKFYDHLLRDCISCASICGQHPKQCAYFCENKLRSPVNLPPELDKTHTCPPCPAPEAEGAPSVFLFPPKPKDTLMISRTPEVTCVVVDVSHEDPEVKFNWYVDGVEVHNAKTKPREEQYNSTYRVVSVLTVLHQDWLNGKEYKCKVSNKALPSSIEKTISKAKGQPREPQVYTLPPSRDELTKNQVSLTCLVKGFYPSDIAVEWESNGQPENNYKTTPPVLDSDGSFFLYSKLTVDKSRWQQGNVFSCSVMHEALHNHYTQKSLSLSPGK
notes: Positive control TACI-Fc; also called RC18
